Reference: patent publication US20110311550A1 (Scripps Research, published 2011)

How the values were obtained:
[1] = biological target: T1, HCV E1E2 complex, isolate H77 (genotype 1a) (hepatitis C virus genotype 1a, isolate …, UniProt P27958 192-383; P27958 384-746); assay: Fab screen after panning on antibody-masked E1E2 (H77)
[2] = biological target: HCV E1E2 complex, isolate HCV-1 (genotype 1a), vaccinia-expressed (hepatitis C virus genotype 1a, isolate …, UniProt P26664 192-383; P26664 384-746); assay: apparent affinity: half-maximal binding, ELISA on lectin-captured E1E2
[3] = biological target: T1, HCV E1E2 complex, isolate H77 (genotype …); assay: as above
[4] = biological target: T1, HCV E1E2 complex, isolate H77 (genotype …); assay: ELISA, mAb with E1E2 (H77), then CD81-LEL plate

B1: Fab L7 (Fab, V domains shown)
VH: VQLLEQSGAEVKKPGSSVKVTCKVPGDTFRSYVITWVRQAPGQGLEWLGGILPFFGTTNLAQKFQGRVTLTADESTTTAYMELSSLRAEDTAVYYCAKAGDLAFGGVIAGGVPHLSHFDPWGQGTLVTVSS
VL: ELTQSPGTLSLSPGERATLSCRASQSVPSSYLGWYQQKPGQAPRLLIYGASSRATGIPERFSGSGSGTDFTLTISRLEPEDFAVYYCQQYGSSLSFGQGTKVDLKR
B1: binds [1].

B2: MAb AR3C (IgG1 from Fab H3) (antibody, V domains shown)
VH: LEQSGAEVKKPGSSVKVSCETSGGTLDNYALNWVRQAPGQGLEWIGGVVPLFGTTRNAQKFQGRVTISDDKSTGTGHMELRSLRSEDTAVYYCVRSVTPRYCGGGFCYGEFDYWGQGTLVTVSS
VL: ELTQSPATLSVSPGERATLSCRASQSVSSNLAWYQQKPGQAPRLLIYGASTRATGIPARFSGSGSGTEFTLTVSRLEPEDSAVYFCQQYYRSPLTFGGGTKVEIKR
With B2 the EC50 [2] was 1.4 nM, the EC50 [3] was 2.3 nM and the IC50 [4] was 2 nM.

B3: MAb AR1A (IgG1 from Fab B2) (antibody, V domains shown)
VH: LEQSGAEVKKPGSSVKVSCRASGSPYSSYTITWVRQAPGQGLEWMGGIILMTGKANYAQKFQGRVTITADRATATAYMEMSSLTSDDTAIYYCARDPYVYAGDDVRSLSRWGQGTPVIVSS
VL: not shown
notes: also called ARIA
Work on B3 yielded an EC50 [2] of 2.6 nM, an EC50 [3] of 3.8 nM and an IC50 [4] of 5.7 nM.
